# T1: H3 protein (vaccinia virus, UniProt P07240 1-278)
# T1 sequence: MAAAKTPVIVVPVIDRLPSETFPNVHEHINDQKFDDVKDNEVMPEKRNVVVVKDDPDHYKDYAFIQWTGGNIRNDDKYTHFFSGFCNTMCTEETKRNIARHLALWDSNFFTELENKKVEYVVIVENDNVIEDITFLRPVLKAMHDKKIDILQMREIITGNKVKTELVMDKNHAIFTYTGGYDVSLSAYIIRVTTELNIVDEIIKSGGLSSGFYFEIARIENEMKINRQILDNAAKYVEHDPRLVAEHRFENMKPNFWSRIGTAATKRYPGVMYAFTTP
# T2: L1 protein (vaccinia virus, UniProt P07612 1-183)
# T2 sequence: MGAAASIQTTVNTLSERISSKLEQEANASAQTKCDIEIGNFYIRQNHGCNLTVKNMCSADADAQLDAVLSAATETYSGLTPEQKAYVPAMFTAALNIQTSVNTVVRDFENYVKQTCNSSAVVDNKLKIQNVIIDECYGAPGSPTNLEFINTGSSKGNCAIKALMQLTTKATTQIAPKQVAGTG
# T3: A27 protein (vaccinia virus, UniProt P11258 1-110)
# T3 sequence: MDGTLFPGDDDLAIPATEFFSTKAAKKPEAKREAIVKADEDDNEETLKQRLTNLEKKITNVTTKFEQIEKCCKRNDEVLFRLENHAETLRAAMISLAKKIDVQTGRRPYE
# Assays:
# [1] = target: T1, H3 protein; assay: ELISA on recombinant protein
# [2] = target: T2, L1 protein; assay: ELISA on recombinant VACV surface proteins
# [3] = target: B5 protein (vaccinia virus, UniProt Q01227 18-279); assay: ELISA on recombinant VACV surface proteins
# [4] = target: T4, VACV A33 recombinant protein (vaccinia virus, UniProt P68616 89-185); assay: ELISA on recombinant VACV surface proteins
# [5] = target: T3, A27 protein; assay: ELISA on recombinant VACV surface proteins
# [6] = target: T1, H3 protein; assay: ELISA on recombinant VACV surface proteins
# [7] = target: T4, VACV A33 recombinant protein
binder,measurement,setting,value
"MV31 (antibody, V domains shown) VH: EVQLAESGGGLVPPDGSLRLSCTASGFTFSNYWMYWFRQAPGKGLEWVASISGSRRNIDYSDSVKGRFTISRDNAKNTLFLQMNRLRGDDTAVYYCAREGETSTYFFDPWGQGVLVTASS VL: QPVLTQPPTVSKSLGQSVTISCTGTSSDVGGYNYVSWYQQRPGKAPKLLIYEVTKRPSGVSDRFSGSKSGNTASLTISGLQAEDEADYYCSSYTTSNTYIFGTGTRLTVL",binding result,[1],binds
"MV26 (antibody, V domains shown) VH: EVQLAESGGGLVQPGGSLRLSCAASGFTFSNYWMYWFRQAPGKGLEWVSSISGSRRNIHYSDSVRGRFTVSRDNAKSTLSLQMNSLRPEDTAVYYCAREGETSTFYFGYWGQGVLVTASS VL: KPMLTQPPSVSVSPGQTARITCGGDNLGTKNVQWYQQKSAQAPVVVIYDDGERPSGIPERFSGSKSGNVATLTISGVEAGDDADYYCQVWDGSSDHPIFGRGTRLTVL",binding result,[1],binds
"MV7 (antibody, V domains shown) VH: QEQLVQSGGGLAKPGGSLRISCAASGFVFSRSAMHWVRQAPGKGLEWVSGISGGGATYYADSVKGRFTISRDNSKNTFSLQMNSLRLEDTAVYYCAKDRRRSVASSYFDSWGQGVLVTVSS VL: QSVLTQPQSVSVSPGQTARISCGGDNIGSKNVHWYQQKPPQAPVLVIYAGTERPSGIPERFSGSNSGNTATLTISGVEAGDEADYYCQVWDGTREHVLFGGGTRLTVL",binding result,[1],binds
"EV4 (antibody, V domains shown) VH: QVQLQESGPGLVKPSETLSLTCAVSGGSISNNYWSWVRQAPGKGLEWIGRIYGSSGSSSYNPSLTGRLTISRDTSKNQLSLRLNSMTAADTAFYYCVRQYFGPRGAFDFWGQGLRVTVSS VL: QPGLTQSPSASEAARKSVTISCSGSSSNIGSNSVSWYQQLPETAPKLLVYYNDRRASSVSDRFSGSKSGTSASLAISGLQTEDEADYYCAAWDNSLSGYVFGAGTRLTVL",binding result,[2],no binding
same,binding result,[3],no binding
same,binding result,[4],no binding
same,binding result,[5],no binding
same,binding result,[6],no binding
"EV42 (antibody, V domains shown) VH: EVQLVESGPRLVKPSETLSLTCAVSGASITSNYWSWIRQPPGKGLEWIGRTPGSSGSTDYNPSLKSRVTISTDTSKNQFSLKLTSVTAADTAVYFCARRYTDSYYLYYFDFWSQGVLVTVSS VL: QSALTQPPSVSGSPGQSVTISCTGTNSDIGSYKYVSWYQKHPGKAPKLVIYDVSQRPSGVSDRFSGSKSGNTASLTISGLQAEDEADYYCSSYAGINTFNVFGSGTKLTIL",Kd,[7],0.095 nM

# Reference: patent publication EP4669352A1 (dated 2025)
